Laboratory results taken from patent US20090162358A1 (GlaxoSmithKline, published 2009).
Ends that are not written are not given here. * marks the point of attachment. Biotin = O=C1N[C@H]2[C@H](CS[C@H]2CCCCC(=O)*)N1

T1: N-terminal biotinylated β-amyloid (24-34) peptide
T1 peptide: Biotin-VGSNKGAIIGL

T2: N-terminal coupled CGGGEDVGSNKGAIIGLMVGG (22-38) ovalbumin conjugate (coupled by the N-terminus to ovalbumin)
T2 peptide: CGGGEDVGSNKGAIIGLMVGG

T3: ovalbumin protein (UniProt P01012 2-386)
T3 sequence (looked up): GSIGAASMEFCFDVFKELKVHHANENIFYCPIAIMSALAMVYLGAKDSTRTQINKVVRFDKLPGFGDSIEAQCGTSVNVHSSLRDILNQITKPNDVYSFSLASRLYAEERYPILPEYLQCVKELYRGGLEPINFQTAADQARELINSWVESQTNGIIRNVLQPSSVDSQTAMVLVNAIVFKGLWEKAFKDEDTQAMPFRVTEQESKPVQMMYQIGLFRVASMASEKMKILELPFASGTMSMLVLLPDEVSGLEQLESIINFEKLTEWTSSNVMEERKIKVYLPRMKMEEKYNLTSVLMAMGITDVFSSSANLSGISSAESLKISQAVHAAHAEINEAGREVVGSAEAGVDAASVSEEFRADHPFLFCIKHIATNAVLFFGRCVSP

B1: 2C1 mouse monoclonal antibody (antibody, V domains shown)
VH: EVQLQQSGAELVKPGASVKLSCTGSGFNIKVYYVHWLKQLTEQGLEWIGRIDPENGETIYAPKFQDKATLTVDTSSNTAYLQLSSLTSEDTAVYYCVSSGYWGQGTTLTVSS
VL: DIVMTQSAFSNPVTLGTSASISCRSSKSLLHRNGITYLYWYLQKPGQSPQLLIYQMSNLASGVPDRFTSSGSGTDFTLKISRVEAEDVGVYYCAQNLELWTFGGGTKLEIK
notes: Mouse hybridoma antibody
B2: 2E11 mouse monoclonal antibody (antibody, V domains shown)
VH: EVQLQQSGAEVVKPGASVKLSCTASGFNIKVYYIHWLKQLTEQGLEWIGRIDPENGETKYVPKFQGKATLTVDTSSNTAYLHLSSLTSEDTGVYYCVTSGYWGQGTTLTVSS
VL: DIVMTQAAFSNPVALGTSASISCRSSKSLLHSNGITYLYWYLQKPGQSPQLLIYQMSNLASGVPDRFSSSGSGTDFTLRISRVEAEDVGVYYCAQNLELWTFGGGTKLEIK
notes: Mouse hybridoma antibody
B3: 5C9 mouse monoclonal antibody (antibody, V domains shown)
VH: EVQLQQSGAEFVRPGASVKLSCTASGFNIKTYYIHWLKQRTDQGLEWIGRIDPEDGETKFGPKFRGKATLTADTSSNTASLQLSSLTSEDTGVYYCVTSGYWGQGTTLSVSS
VL: DIVMTQAAFSNPVTLGTSASISCRSSKSLLHSNGITYLYWYLQKPGQSPQLLIYQMSNLASGVPDRFSSSGSGTDFTLRISRVEAEDVGVYYCAQNLELWTFGGGTKLEIK
notes: Mouse hybridoma antibody
B4: 14B3 mouse monoclonal antibody (antibody, V domains shown)
VH: EVQLQQSGAELVEPGASVKLSCTGSGFNIKVYYVHWLKQLTEQGLEWIGRIDPENGETLYTPKFQGKATFTVDTSSNTAYLQLSSLTSEDTAVYYCVSSGYWGQGTTLTVSS
VL: DIVMTQSAFSNPVTLGTSASISCRSSKSLLHRNGITYLYWYLQKPGQSPQLLIYQMSNLASGVPDRFTSSGSGTDFTLKISRVEAEDVGVYYCAQNLELWTFGGGTKLEIK
notes: Mouse hybridoma antibody
B5: 16D4 mouse monoclonal antibody (antibody, V domains shown)
VH: EVQLQQSGAELVKPGASVKLSCTASGFNIKDYYMHWLKQLTEQGLEWIGRIDPENGETQYAPKFQGKASLTADTSSNTAYLHLSSLTSEDTAVYYCVSSGYWGQGTTLTVSS
VL: DIVMTQAAFSNPVTLGTSASISCRSSKSLLHSNGITYLYWYLQKPGQSPQLLIYQMSNLASGVPDRFSSSGSGTDFTLRISRVEAEDVGVYYCAQNLELWTFGGGTKLEIK
notes: Mouse hybridoma antibody
B6: 4D4 mouse monoclonal antibody (antibody, V domains shown)
VH: EVQLQQSGAELVEPGASVKLSCTGSGFNIKVYYVHWLKQLTEQGLEWIGRIDPENGETLYTPKFQGKATLTVDTSSNTAYLQLNSLTSEDTAVYYCVSSGYWGQGTSLTVSS
VL: DIVMTQSAFSNPVTLGTSASISCRSSKSLLHRNGITYLYWYLQKPGQSPQLLIYQMSNLASGVPDRFTSSGSGTDFTLKISRVEAEDVGVYYCAQNLELWTFGGGTKLEIK
notes: Mouse hybridoma antibody
B7: humanised de-immunised construct H48L19 (antibody, human IgG1, V domains shown)
VH: QVQLVQSGAEVKEPGASVKVSCKGSGFNIHVYYVHWLRQLPEKGLEWIGRIDPENGETIYTPKFQDKATLTVDTSTDTAYMELSSLRSEDTAVYYCVSSGYWGQGTLVTVSS
VL: DIVMTQSPLSNPVTPGEPASISCRSSKSLLHRNGKTYLYWYLQKPGQSPQLLIYQMDHLASGVPDRFSSSGSGTDFTLKISRVEAEDVGVYYCAQNLELWTFGQGTKVEIK
B8: humanised de-immunised construct H50L20 (antibody, human IgG1, V domains shown)
VH: QVQLVQSGAEVKEPGASVKVSCTGSGFNIHVYYVHWLRQLPEKGLEWIGRIDPENGETIYTPKFQDKATLTVDTSTDTAYMELSSLRSEDTAVYYCVSSGYWGQGTLVTVSS
VL: DIVMTQSPLSNPVTPGEPASISCRSSKSLLHRNGITYLYWYLQKPGQSPQLLIYQMDHLASGVPDRFSSSGSGTDFTLKISRVEAEDVGVYYCAQNLELWTFGQGTKVEIK
B9: humanised de-immunised construct H50L19 (antibody, human IgG1, V domains shown)
VH: QVQLVQSGAEVKEPGASVKVSCTGSGFNIHVYYVHWLRQLPEKGLEWIGRIDPENGETIYTPKFQDKATLTVDTSTDTAYMELSSLRSEDTAVYYCVSSGYWGQGTLVTVSS
VL: DIVMTQSPLSNPVTPGEPASISCRSSKSLLHRNGKTYLYWYLQKPGQSPQLLIYQMDHLASGVPDRFSSSGSGTDFTLKISRVEAEDVGVYYCAQNLELWTFGQGTKVEIK
B10: humanised de-immunised construct H48L21 (antibody, human IgG1, V domains shown)
VH: QVQLVQSGAEVKEPGASVKVSCKGSGFNIHVYYVHWLRQLPEKGLEWIGRIDPENGETIYTPKFQDKATLTVDTSTDTAYMELSSLRSEDTAVYYCVSSGYWGQGTLVTVSS
VL: DIVMTQSPLSNPVTPGEPASISCRSSKSLLHRNGKTYLYWYLQKPGQSPQLLIYQMDNLASGVPDRFSSSGSGTDFTLKISRVEAEDVGVYYCAQNLELWTFGQGTKVEIK
B11: humanised de-immunised construct H49L19 (antibody, human IgG1, V domains shown)
VH: QVQLVQSGAEVKEPGASVKVSCKGSGFNIKTYYVHWLRQLPEKGLEWIGRIDPENGETIYTPKFQDKATLTVDTSTDTAYMELSSLRSEDTAVYYCVSSGYWGQGTLVTVSS
VL: DIVMTQSPLSNPVTPGEPASISCRSSKSLLHRNGKTYLYWYLQKPGQSPQLLIYQMDHLASGVPDRFSSSGSGTDFTLKISRVEAEDVGVYYCAQNLELWTFGQGTKVEIK
B12: humanised de-immunised construct H48L20 (antibody, human IgG1, V domains shown)
VH: QVQLVQSGAEVKEPGASVKVSCKGSGFNIHVYYVHWLRQLPEKGLEWIGRIDPENGETIYTPKFQDKATLTVDTSTDTAYMELSSLRSEDTAVYYCVSSGYWGQGTLVTVSS
VL: DIVMTQSPLSNPVTPGEPASISCRSSKSLLHRNGITYLYWYLQKPGQSPQLLIYQMDHLASGVPDRFSSSGSGTDFTLKISRVEAEDVGVYYCAQNLELWTFGQGTKVEIK
B13: humanised de-immunised construct H51L19 (antibody, human IgG1, V domains shown)
VH: QVQLVQSGAEVKEPGASVKVSCKGSGFNIHTYYVHWLRQLPEKGLEWIGRIDPENGETIYTPKFQDKATLTVDTSTDTAYMELSSLRSEDTAVYYCVSSGYWGQGTLVTVSS
VL: DIVMTQSPLSNPVTPGEPASISCRSSKSLLHRNGKTYLYWYLQKPGQSPQLLIYQMDHLASGVPDRFSSSGSGTDFTLKISRVEAEDVGVYYCAQNLELWTFGQGTKVEIK
B14: humanised de-immunised construct H49L21 (antibody, human IgG1, V domains shown)
VH: QVQLVQSGAEVKEPGASVKVSCKGSGFNIKTYYVHWLRQLPEKGLEWIGRIDPENGETIYTPKFQDKATLTVDTSTDTAYMELSSLRSEDTAVYYCVSSGYWGQGTLVTVSS
VL: DIVMTQSPLSNPVTPGEPASISCRSSKSLLHRNGKTYLYWYLQKPGQSPQLLIYQMDNLASGVPDRFSSSGSGTDFTLKISRVEAEDVGVYYCAQNLELWTFGQGTKVEIK
B15: humanised de-immunised construct H49L20 (antibody, human IgG1, V domains shown)
VH: QVQLVQSGAEVKEPGASVKVSCKGSGFNIKTYYVHWLRQLPEKGLEWIGRIDPENGETIYTPKFQDKATLTVDTSTDTAYMELSSLRSEDTAVYYCVSSGYWGQGTLVTVSS
VL: DIVMTQSPLSNPVTPGEPASISCRSSKSLLHRNGITYLYWYLQKPGQSPQLLIYQMDHLASGVPDRFSSSGSGTDFTLKISRVEAEDVGVYYCAQNLELWTFGQGTKVEIK

How the values were obtained:
human β-amyloid 1-40 [1] = target: T4, human β-amyloid 1-40 (human, UniProt P05067 672-711); assay: SPR Biacore 3000; mAb captured on anti-mouse IgG, Aβ 1-40 at 4-500 nM
T4 construct: domain: β-amyloid (1-40); Used in solution over captured antibody (Biacore) or coated on ELISA plates; also called human Aβ peptide (1-40); Aβ peptide (1-40)
T4 sequence (P05067 672-711 limits assumed): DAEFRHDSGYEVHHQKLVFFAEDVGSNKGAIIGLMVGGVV
Protocol: Purified mouse antibody preparations were captured on a polyclonal anti-mouse IgG antibody chip surface. Freshly prepared human β-amyloid 1-40 was diluted down in HBS-EP buffer and passed over the captured antibody surface at concentrations ranging from 4-500 nM for 5 minutes. […] Regeneration was achieved via a pulse of 100 mM H₃PO₄. […] All runs were double referenced against a blank surface and blank buffer injections.

[2] = target: T1, N-terminal biotinylated β-amyloid …; assay: FMAT bead immunoassay, culture supernatant
Source text: (§1) Each of the expressed antibodies contained in culture supernatant was then screened in an FMAT (Fluorescent Microvolume Assay Technology) homogenous immunoassay. 29 positive antibodies were identified from this screening cascade that were negative for ovalbumin protein passively absorbed to polystyrene beads but positive for: [0158] (i) N-terminal coupled […] (22-38) (SEQ ID No:73) ovalbumin conjugate bound to polystyrene beads, [0159] (ii) N-terminal biotinylated β-amyloid(1-40) peptide bound to streptavidin coated polystyrene beads, [0160] (iii) C-terminal biotinylated β-amyloid(1-40) peptide bound to streptavidin coated polystyrene beads and [0161] (iv) N-terminal biotinylated β-amyloid (24-34) peptide, residues 24-34 of β-amyloid being […] (SEQ ID No:8), bound to streptavidin coated polystyrene beads.

[3] = target: T2, N-terminal coupled …; assay: FMAT bead immunoassay, culture supernatant
Source text: as §1

ovalbumin protein = target: T3, ovalbumin protein; assay: FMAT bead immunoassay, culture supernatant
Source text: as §1

human β-amyloid 1-40 [4] = target: T4, human β-amyloid 1-40; assay: SPR Biacore T100; antibody captured on anti-human IgG, Aβ 1-40 at 1-256 nM; 1:1 model
Protocol: (§2) Anti-human IgG (Biacore BR-1008-39) was coupled to a CM5 biosensor chip by primary amine coupling. The anti-beta amyloid antibodies were captured on this surface. Beta amyloid (1-40) was then passed over at 256, 64, 16, 4 and 1 nM, with a 0 nM (ie buffer alone passed over the captured antibody surface) used for double referencing. […] The data was analysed using the 1:1 model inherent to the T100. The run was carried out at 25° C. and 37° C. using HBS-EP as the running buffer.

human β-amyloid 1-40 [5] = target: T4, human β-amyloid 1-40; assay: SPR Biacore T100 at 37 C; antibody captured on anti-human IgG, Aβ 1-40 at 1-256 nM
Protocol: as §2
From this panel some constructs were also assessed for binding kinetics at physiological temperature.

Binder | Kd (human β-amyloid 1-40 [1]) | koff (human β-amyloid 1-40 [1]) | kon (human β-amyloid 1-40 [1]) | binding result [2] | binding result [3] | binding result (ovalbumin protein) | Kd (human β-amyloid 1-40 [4]) | Kd (human β-amyloid 1-40 [5])
B1 | 1.95 nM | 0.000129 s⁻¹ | 66300 M⁻¹ s⁻¹ | binds | binds | no binding | – | –
B2 | 2.01 nM | 0.00017 s⁻¹ | 84500 M⁻¹ s⁻¹ | binds | binds | no binding | – | –
B3 | 2.69 nM | 0.000164 s⁻¹ | 61100 M⁻¹ s⁻¹ | binds | binds | no binding | – | –
B4 | 0.95 nM | 7.11e-05 s⁻¹ | 74800 M⁻¹ s⁻¹ | binds | binds | no binding | – | –
B5 | 7.62 nM | 0.000618 s⁻¹ | 81200 M⁻¹ s⁻¹ | binds | binds | no binding | – | –
B6 | 1.13 nM | 8.27e-05 s⁻¹ | 73200 M⁻¹ s⁻¹ | binds | binds | no binding | – | –
B7 | – | – | – | – | – | – | 3.15 nM | –
B8 | – | – | – | – | – | – | 2.5 nM | 3.5 nM
B9 | – | – | – | – | – | – | 2.76 nM | –
B10 | – | – | – | – | – | – | 2.01 nM | 2.69 nM
B11 | – | – | – | – | – | – | 3.09 nM | –
B12 | – | – | – | – | – | – | 2.02 nM | 3.54 nM
B13 | – | – | – | – | – | – | 2.65 nM | –
B14 | – | – | – | – | – | – | 2.58 nM | –
B15 | – | – | – | – | – | – | 2.23 nM | –
